Here are results for 4 molecules from patent US6790630 (NEW ENGLAND BIOLABS, dated 2004).

Sequences and labels used below:
B1: DiT33, native 31-33 kDa glycoprotein of Dirofilaria immitis (other)
chain: SVINRHNKRFAGFSVAGIGGTAGCVVVDNKLFANSFYLRDLTTEEQRELAQYVEDSNQYKEEVKTSLEERRKGWQLARHGEKDAKVLSSLAEKKFPKPPKKPSFCSAGDTTQYYFDGCMVQNNKIYVGRMYVRDLTSDEINQLKTFDAKMTAYQKYLSSSIQQQVDSLFGDKSNLFNLFTDTRHETSSQPSDATTISTTTQAPVEPPETPHFCIAIY
notes: also called doublet of 31 and 33 kDa; D. immitis homolog of Ov33
B4: Ov33, native 31-33 kDa antigen of Onchocerca volvulus adult worms (other)
chain: GVVKRYNKRFAGFNVAGIGGNAGCVVVDNKLFANSFFLRELTTEEQRELAQYIEDSNRYKEEVKESLEERRKGWQLARDGKEDSKVLSALAEKKLPKPPKKPSFCSAGDTTQYYFDGCMVQNDKIYVGRAYVRDLTPDEVTQLKTFDAKMTAYQKYLSSTIQKQVDSLFGEKSNLFNLFADTRTEATSQASDDATAGATTTQAPVEAPEPPHFCVAIY

Assay [1] deals with T1, Phaseolus vulgaris erthroagglutinin (PHA-E), biotinylated (Phaseolus vulgaris, UniProt P05088 22-275).
T1 construct: Lectin
The experiment in a line: lectin blot of affinity purified antigen.

Assay [2] has as its target T2, Erythrina cristagalli lectin (ECL), biotinylated (Erythrina cristagalli, UniProt P83410 1-239).
T2 construct: Lectin
T2 sequence: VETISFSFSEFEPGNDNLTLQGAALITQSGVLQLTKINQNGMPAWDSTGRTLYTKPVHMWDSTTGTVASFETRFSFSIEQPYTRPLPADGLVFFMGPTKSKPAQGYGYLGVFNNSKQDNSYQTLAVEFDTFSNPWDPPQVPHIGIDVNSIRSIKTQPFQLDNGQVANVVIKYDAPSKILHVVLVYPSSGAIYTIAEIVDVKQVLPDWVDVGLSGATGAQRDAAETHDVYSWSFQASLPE
Briefly: lectin blot of affinity purified antigen.

Assay [3] deals with T3, Peanut agglutinin (PNA), biotinylated (UniProt P02872 24-259).
T3 construct: Lectin
T3 sequence: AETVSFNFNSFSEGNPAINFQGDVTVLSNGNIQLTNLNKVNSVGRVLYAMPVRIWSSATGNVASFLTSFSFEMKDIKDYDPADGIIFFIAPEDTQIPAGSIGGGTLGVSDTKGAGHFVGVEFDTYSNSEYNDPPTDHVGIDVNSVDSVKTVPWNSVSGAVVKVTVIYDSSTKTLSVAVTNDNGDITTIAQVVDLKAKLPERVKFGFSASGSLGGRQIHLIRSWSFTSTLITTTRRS
Briefly: lectin blot of affinity purified antigen.

Assay [4] concerns the target T4, Concanavilin A (Con-A), biotinylated (UniProt P02866 30-281).
T4 construct: Lectin
The experiment in a line: lectin blot of affinity purified antigen.

The target of assay [5] is T5, Soybean agglutinin (SBA), biotinylated (UniProt P05046 33-285).
T5 construct: Lectin
The experiment in a line: lectin blot of affinity purified antigen.

Assay [6] concerns the target B1. The experiment in a line: lectin blot, biotinylated lectin 20 µg/ml.
The target in assay [7] is B4. The experiment in a line: lectin blot, biotinylated lectin 20 µg/ml.
The target in assay [8] is B1. Briefly: lectin blot of affinity purified antigen.
Assay [9] addresses B4. Briefly: lectin blot of affinity purified antigen.

T5 sequence (P05046 33-285 limits assumed): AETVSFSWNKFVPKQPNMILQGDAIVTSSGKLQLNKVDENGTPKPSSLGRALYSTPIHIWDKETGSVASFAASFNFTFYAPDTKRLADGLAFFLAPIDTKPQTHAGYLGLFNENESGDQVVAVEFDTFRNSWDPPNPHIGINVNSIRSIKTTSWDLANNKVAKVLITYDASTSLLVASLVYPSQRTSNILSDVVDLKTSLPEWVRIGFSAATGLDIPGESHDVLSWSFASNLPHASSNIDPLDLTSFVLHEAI

In the case of B1, the binding result in [1], in assay [2], in assay [3], in assay [4] and in assay [5] was “no binding (tested: 20 µg/ml)” each time.

B2: Artpocarpus integrifolia (jacalin), biotinylated (other)
chain 1: GKAFDDGAFTGIREINLSYNKETAIGDFQVVYDLNGSPYVGQNHKSFITGFTPVKISLDFPSEYIMEVSGYTGNVSGYVVVRSLTFKTNKKTYGPYGVTSGTPFNLPIENGLIVGFKGSIGYWLDYFSMYLSL
chain 2: NEQSGKSQTVIVGSWGAKVS
For B2, the binding result in [6] and in assay [7] was “binds” each time.

B3: Wheat germ agglutinin (WGA), biotinylated (other)
chain: QRCGEQGSNMECPNNLCCSQYGYCGMGGDYCGKGCQNGACWTSKRCGSQAGGATCTNNQCCSQYGYCGFGAEYCGAGCQGGPCRADIKCGSQAGGKLCPNNLCCSQWGFCGLGSEFCGGGCQSGACSTDKPCGKDAGGRVCTNNYCCSKWGSCGIGPGYCGAGCQSGGCDG
notes: Lectin
With B3, the binding result in assay [8] and in assay [9] was “no binding (tested: 20 µg/ml)” in each case.
Turning to B4, the binding result in assay [1], in [2], in [3], in assay [4] and in assay [5] was “no binding (tested: 20 µg/ml)” each time.
